Results as given in the supplement of paper PMC5998384.

Assays:
[1] = tested on: HeLa Kyoto; assay: solubility change mitosis vs G1/S (difference of NP-40 vs SDS log2 ratios) (log2 ratio difference); higher = more soluble in mitosis
[2] = tested on: HeLa Kyoto; assay: solubility in G1/S (NP-40 vs SDS abundance) (log2 ratio); higher = more soluble; settings: cell cycle stage: G1/S
[3] = tested on: HeLa Kyoto; assay: thermal stability score vs G1/S (z-score of summed log2 fold changes over temperatures); higher = more thermally stable than in G1/S
[4] = tested on: HeLa Kyoto; assay: melting temperature (median over replicates), in situ; higher = more thermally stable; settings: cell cycle stage: mitosis
[5] = cell cycle stage: early G1 (4.5 h after nocodazole release)
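For melting temperature (median over replicates), in situ in this document: HeLa Kyoto cells synchronized by double thymidine or nocodazole block, proteins quantified by TMT10plex mass spectrometry, three independent biological replicates.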
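For solubility change mitosis vs G1/S (difference of NP-40 vs SDS log2 ratios) in this document: synchronized HeLa Kyoto cells (double thymidine block for G1/S, nocodazole release for mitosis), protein amounts in NP-40 versus SDS lysates quantified by mass spectrometry, three biological replicates.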
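For solubility in G1/S (NP-40 vs SDS abundance) in this document: HeLa Kyoto cells arrested at G1/S by double thymidine block, proteins quantified by TMT10plex mass spectrometry in mild NP-40 versus SDS extracts, three biological replicates.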
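For thermal stability score vs G1/S (z-score of summed log2 fold changes over temperatures) in this document: synchronized HeLa Kyoto cells, proteins quantified by TMT10plex mass spectrometry, three biological replicates, mitosis taken 0.5 h after nocodazole release, G1/S directly after double thymidine block.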

Chain of ERGIC3 (chain, as listed by the source): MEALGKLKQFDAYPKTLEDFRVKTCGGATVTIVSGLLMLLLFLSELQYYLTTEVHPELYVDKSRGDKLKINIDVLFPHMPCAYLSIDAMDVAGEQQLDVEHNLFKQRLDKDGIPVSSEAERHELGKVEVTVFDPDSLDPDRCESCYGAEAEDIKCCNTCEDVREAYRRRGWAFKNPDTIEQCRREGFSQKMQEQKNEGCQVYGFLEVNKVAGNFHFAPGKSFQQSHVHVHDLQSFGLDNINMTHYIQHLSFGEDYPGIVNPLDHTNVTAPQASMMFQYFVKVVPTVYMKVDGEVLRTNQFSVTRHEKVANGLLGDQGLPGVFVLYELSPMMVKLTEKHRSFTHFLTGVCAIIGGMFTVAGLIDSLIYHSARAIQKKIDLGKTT

MDKNIGEQLNKAYEAFRQACMDRDSAVKELQQKTENYEQRIREQQEQLSLQQTIIDKLKSQLLLVNSTQDNNYGCVPLLEDSETRKNNLTLDQPQDKVISGIAREKLPKVRRQEVSSPRKETSARSLGSPLLHERGNIEKTFWDLKEEFHKICMLAKAQKDHLSKLNIPDTATETQCSVPIQCTDKTDKQEALFKPQAKDDINRGAPSITSVTPRGLCRDEEDTSFESLSKFNVKFPPMDNDSTFLHSTPERPGILSPATSEAVCQEKFNMEFRDNPGNFVKTEETLFEIQGIDPIASAIQNLKTTDKTKPSNLVNTCIRTTLDRAACLPPGDHNALYVNSFPLLDPSDAPFPSLDSPGKAIRGPQQPIWKPFPNQDSDSVVLSGTDSELHIPRVCEFCQAVFPPSITSRGDFLRHLNSHFNGET [TANK]
solubility change mitosis (log2) [1]: -0.0338 | solubility in G1/S (log2) [2]: -0.138

MSSRLGAVPATSGPTTFKQQRSTRIVGAKNSRTQCSIKDNSFQYTIPHDDSLSGSSSASSCEPVSDFPASFRKSTYWMKMRRIKPAATSHVEGSGGVSAKGKRKPRQEEDEDYREFPQKKHKLYGRKQRPKTQPNPKSQARRIRKEPPVYAAGSLEEQWYLEIVDKGSVSCPTCQAVGRKTIEGLKKHMENCKQEMFTCHHCGKQLRSLAGMKYHVMANHNSLPILKAGDEIDEPSERERLRTVLKRLGKLRCMRESCSSSFTSIMGYLYHVRKCGKGAAELEKMTLKCHHCGKPYRSKAGLAYHLRSEHGPISFFPESGQPECLKEMNLESKSGGRVQRRSAKIAVYHLQELASAELAKEWPKRKVLQDLVPDDRKLKYTRPGLPTFSQEVLHKWKTDIKKYHRIQCPNQGCEAVYSSVSGLKAHLGSCTLGNFVAGKYKCLLCQKEFVSESGVKYHINSVHAEDWFVVNPTTTKSFEKLMKIKQRQQEEEKRRQQHRSRRSLRRRQQPGIELPETELSLRVGKDQRRNNEELVVSASCKEPEQEPVPAQFQKVKPPKTNHKRGRK [ZNF512]
solubility change mitosis (log2) [1]: 1.4 | solubility in G1/S (log2) [2]: -2.03

MGTSLSPNDPWPLNPLSIQQTTLLLLLSVLATVHVGQRLLRQRRRQLRSAPPGPFAWPLIGNAAAVGQAAHLSFARLARRYGDVFQIRLGSCPIVVLNGERAIHQALVQQGSAFADRPAFASFRVVSGGRSMAFGHYSEHWKVQRRAAHSMMRNFFTRQPRSRQVLEGHVLSEARELVALLVRGSADGAFLDPRPLTVVAVANVMSAVCFGCRYSHDDPEFRELLSHNEEFGRTVGAGSLVDVMPWLQYFPNPVRTVFREFEQLNRNFSNFILDKFLRHCESLRPGAAPRDMMDAFILSAEKKAAGDSHGGGARLDLENVPATITDIFGASQDTLSTALQWLLLLFTRYPDVQTRVQAELDQVVGRDRLPCMGDQPNLPYVLAFLYEAMRFSSFVPVTIPHATTANTSVLGYHIPKDTVVFVNQWSVNHDPLKWPNPENFDPARFLDKDGLINKDLTSRVMIFSVGKRRCIGEELSKMQLFLFISILAHQCDFRANPNEPAKMNFSYGLTIKPKSFKVNVTLRESMELLDSAVQNLQAKETCQ [CYP1B1]
solubility change mitosis (log2) [1]: -0.171 | solubility in G1/S (log2) [2]: -0.0639

DOPEY2
solubility change mitosis (log2) [1]: -0.106 | solubility in G1/S (log2) [2]: -0.255

MFYAHFVLSKRGPLAKIWLAAHWDKKLTKAHVFECNLESSVESIISPKVKMALRTSGHLLLGVVRIYHRKAKYLLADCNEAFIKIKMAFRPGVVDLPEENREAAYNAITLPEEFHDFDQPLPDLDDIDVAQQFSLNQSRVEEITMREEVGNISILQENDFGDFGMDDREIMREGSAFEDDDMLVSTTTSNLLLESEQSTSNLNEKINHLEYEDQYKDDNFGEGNDGGILDDKLISNNDGGIFDDPPALSEAGVMLPEQPAHDDMDEDDNVSMGGPDSPDSVDPVEPMPTMTDQTTLVPNEEEAFALEPIDITVKETKAKRKRKLIVDSVKELDSKTIRAQLSDYSDIVTTLDLAPPTKKLMMWKETGGVEKLFSLPAQPLWNNRLLKLFTRCLTPLVPEDLRKRRKGGEADNLDEFLKEFENPEVPREDQQQQHQQRDVIDEPIIEEPSRLQESVMEASRTNIDESAMPPPPPQGVKRKAGQIDPEPVMPPQQVEQMEIPPVELPPEEPPNICQLIPELELLPEKEKEKEKEKEDDEEEEDEDASGGDQDQEERRWNKRTQQMLHGLQRALAKTGAESISLLELCRNTNRKQAAAKFYSFLVLKKQQAIELTQEEPYSDIIATPGPRFHII [RAD21]
solubility change mitosis (log2) [1]: -0.0219 | thermal stability score [3, 5]: -1.05 | thermal stability score ([3]; cell cycle stage: mitosis): -1.37

MSALEKSMHLGRLPSRPPLPGSGGSQSGAKMRMGPGRKRDFSPVPWSQYFESMEDVEVENETGKDTFRVYKSGSEGPVLLLLHGGGHSALSWAVFTAAIISRVQCRIVALDLRSHGETKVKNPEDLSAETMAKDVGNVVEAMYGDLPPPIMLIGHSMGGAIAVHTASSNLVPSLLGLCMIDVVEGTAMDALNSMQNFLRGRPKTFKSLENAIEWSVKSGQIRNLESARVSMVGQVKQCEGITSPEGSKSIVEGIIEEEEEDEEGSESISKRKKEDDMETKKDHPYTWRIELAKTEKYWDGWFRGLSNLFLSCPIPKLLLLAGVDRLDKDLTIGQMQGKFQMQVLPQCGHAVHEDAPDKVAEAVATFLIRHRFAEPIGGFQCVFPGC [PPME1]
solubility change mitosis (log2) [1]: 0.0133 | thermal stability score [3, 5]: -0.13 | thermal stability score ([3]; cell cycle stage: mitosis): -0.609

MPGIDKLPIEETLEDSPQTRSLLGVFEEDATAISNYMNQLYQAMHRIYDAQNELSAATHLTSKLLKEYEKQRFPLGGDDEVMSSTLQQFSKVIDELSSCHAVLSTQLADAMMFPITQFKERDLKEILTLKEVFQIASNDHDAAINRYSRLSKKRENDKVKYEVTEDVYTSRKKQHQTMMHYFCALNTLQYKKKIALLEPLLGYMQAQISFFKMGSENLNEQLEEFLANIGTSVQNVRREMDSDIETMQQTIEDLEVASDPLYVPDPDPTKFPVNRNLTRKAGYLNARNKTGLVSSTWDRQFYFTQGGNLMSQARGDVAGGLAMDIDNCSVMAVDCEDRRYCFQITSFDGKKSSILQAESKKDHEEWICTINNISKQIYLSENPEETAARVNQSALEAVTPSPSFQQRHESLRPAAGQSRPPTARTSSSGSLGSESTNLAALSLDSLVAPDTPIQFDIISPVCEDQPGQAKAFGQGGRRTNPFGESGGSTKSETEDSILHQLFIVRFLGSMEVKSDDHPDVVYETMRQILAARAIHNIFRMTESHLLVTCDCLKLIDPQTQVTRLTFPLPCVVLYATHQENKRLFGFVLRTSSGRSESNLSSVCYIFESNNEGEKICDSVGLAKQIALHAELDRRASEKQKEIERVKEKQQKELNKQKQIEKDLEEQSRLIAASSRPNQASSEGQFVVLSSSQSEESDLGEGGKKRESEA [APPL1]
solubility in G1/S (log2) [2]: 0.05 | melting temperature [4]: 50.4 °C

MAASSSGEKEKERLGGGLGVAGGNSTRERLLSALEDLEVLSRELIEMLAISRNQKLLQAGEENQVLELLIHRDGEFQELMKLALNQGKIHHEMQVLEKEVEKRDSDIQQLQKQLKEAEQILATAVYQAKEKLKSIEKARKGAISSEEIIKYAHRISASNAVCAPLTWVPGDPRRPYPTDLEMRSGLLGQMNNPSTNGVNGHLPGDALAAGRLPDVLAPQYPWQSNDMSMNMLPPNHSSDFLLEPPGHNKENEDDVEIMSTDSSSSSSESD [MED4]
solubility change mitosis (log2) [1]: -0.0345 | thermal stability score [3, 5]: -1.56 | thermal stability score ([3]; cell cycle stage: mitosis): -1.18

ERGIC3
solubility change mitosis (log2) [1]: -0.0891 | thermal stability score [3, 5]: -2.7 | thermal stability score ([3]; cell cycle stage: mitosis): -7.02

MFSWMGRQAGGRERAGGADAVQTVTGGLRSLYLRKVLPLEEAYRFHEFHSPALEDADFENKPMILLVGQYSTGKTTFIRYLLEQDFPGMRIGPEPTTDSFIAVMYGETEGSTPGNALVVDPKKPFRKLSRFGNAFLNRFMCSQLPNQVLKSISVIDSPGILSGEKQRISRGYDFCQVLQWFAERVDRIILLFDAHKLDISDEFSEAIKAFRGQDDKIRVVLNKADQVDTQQLMRVYGALMWSLGKVINTPEVLRVYIGSFWAQPLQNTDNRRLFEAEAQDLFRDIQSLPQKAAVRKLNDLIKRARLAKVHAYIISYLKKEMPSVFGKENKKRELISRLPEIYIQLQREYQISAGDFPEVKAMQEQLENYDFTKFHSLKPKLIEAVDNMLSNKISPLMNLISQEETSTPTQLVQGGAFDGTTEGPFNQGYGEGAKEGADEEEWVVAKDKPVYDELFYTLSPINGKISGVNAKKEMVTSKLPNSVLGKIWKLADCDCDGMLDEEEFALAKHLIKIKLDGYELPSSLPPHLVPPSHRKSLPKAD [EHD4]
solubility in G1/S (log2) [2]: 0.226 | melting temperature [4]: 50.4 °C
